Reference: patent US8278037B2, “N-acetylgalactosamine transferases and nucleic acids encoding the same” (National Institute of Advanced Industrial Science and …, priority 2002, dated 2012)

How the values were obtained:
NGalNAc-T1 = target: T1, NGalNAc-T1 (Homo sapiens, UniProt Q76KP1); test: Study of optimum pH in enzymatic activity; format: biochemical; details: for (A) − (B): blank 263.21 subtracted
T1 sequence (Q76KP1 62-1039): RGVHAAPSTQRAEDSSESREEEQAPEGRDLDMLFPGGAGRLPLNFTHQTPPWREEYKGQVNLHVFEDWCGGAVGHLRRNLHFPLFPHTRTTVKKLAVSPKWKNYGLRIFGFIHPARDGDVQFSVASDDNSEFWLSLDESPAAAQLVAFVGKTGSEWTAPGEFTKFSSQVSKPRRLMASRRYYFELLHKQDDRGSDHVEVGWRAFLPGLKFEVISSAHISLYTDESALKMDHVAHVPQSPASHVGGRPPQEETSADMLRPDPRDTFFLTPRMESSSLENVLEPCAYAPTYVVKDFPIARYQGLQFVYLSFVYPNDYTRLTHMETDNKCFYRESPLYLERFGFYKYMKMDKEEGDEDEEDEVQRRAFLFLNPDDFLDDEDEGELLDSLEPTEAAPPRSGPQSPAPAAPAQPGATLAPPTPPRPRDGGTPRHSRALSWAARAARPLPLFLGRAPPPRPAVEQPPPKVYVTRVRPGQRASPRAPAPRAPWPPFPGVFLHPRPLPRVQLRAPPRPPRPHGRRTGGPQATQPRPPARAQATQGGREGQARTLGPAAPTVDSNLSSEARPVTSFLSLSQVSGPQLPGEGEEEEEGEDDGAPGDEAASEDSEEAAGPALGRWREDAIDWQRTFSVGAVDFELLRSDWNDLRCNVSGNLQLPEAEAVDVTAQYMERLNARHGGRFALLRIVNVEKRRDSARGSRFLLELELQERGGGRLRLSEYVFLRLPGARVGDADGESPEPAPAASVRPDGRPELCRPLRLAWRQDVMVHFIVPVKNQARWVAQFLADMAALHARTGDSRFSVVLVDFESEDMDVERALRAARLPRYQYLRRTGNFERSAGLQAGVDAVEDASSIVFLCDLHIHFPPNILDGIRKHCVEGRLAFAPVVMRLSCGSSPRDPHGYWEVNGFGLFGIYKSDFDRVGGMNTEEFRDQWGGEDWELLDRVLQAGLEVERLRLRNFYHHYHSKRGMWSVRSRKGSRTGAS
Source text: As described above, it was explained that NGalNAc-T1 and NGalNAc-T2 are glycosyl transferases which transfer GalNAc to GlcNAc. Thereat, the optimum pH of both enzymes was studied. The buffer solutions used are MES (pH 5.5, 6.0, 6.26, 6.5, 6.75), HEPES (pH 6.75, 7.0, 7.4).
In addition, the value (263.21 dpm) of MES (pH 6.75) was adopted as a blank value in the case of a non-enzyme. Further, when pH of HEPES buffer was 7.4 for NGalNAc-T1 and 6.75 for NGalNAc-T2, the highest value was shown. […] Hereinafter, MES (pH 6.5) was used in each of experiments.

glycodelin in CHO cells = test: N-glycan structures on glycodelin from NGalNAc-T gene transfected CHO cells, WFA lectin blotting; format: cell-based; details: gene co-transfected with glycodelin gene in CHO cells, 48 hr culture medium
Source text: As shown above, both NGalNAc-T1 and -T2 could synthesize LacdiNAc structures on mono- and oligosaccharide acceptors. Actually, it is known that the LacdiNAc structures exist in N-glycans on some glycoproteins. Therefore we examined the ability of NGalNAc-T1 to construct LacdiNAc on glycodelin, which is one of major glycoproteins carrying LacdiNAc structures, in vivo. CHO cells were employed for this purpose, because glycodelin produced in CHO cells is devoid of any of the LacdiNAc-based chains.
The glycodelin expression vector was transfected into CHO cells expressing NGalNAc-T1 or -T2 gene and the culture medium was collected from 48 hr-culture medium. Glycodelin was harvested with WFA affinity column from the culture medium. The harvested glycodelin was applied to SDS-PAGE and used for lectin blotting with WFA.

[1] = tested on: asialo/agalacto-fetal calf fetuin; test: LacdiNAc synthesizing activity toward asialo/agalacto-fetal calf fetuin, WFA lectin blot; format: biochemical; details: 37° C. for 16 hr, HRP conjugated WFA lectin detection
Method: Fetal calf fetuin (FCF), neuraminidase, β1-4 galactosidase and glycopeptidase F were purchased from Sigma, Nacalai Tesque (Kyoto, Japan), Calbiochem and Takara, respectively. Asialo/agalacto-FCF was prepared from 200 μg of FCF by incubating with 4 μU of neuraminidase and 12 μU of β1,4-galactosidase at 37° C. for 16 hr. The transfer of GalNAc by GalNAc-T2 to glycoprotein was performed in 20 μl of a standard reaction mixture containing 50 μg of asialo/agalacto-FCF produced by glycosidase treatment. After the incubation at 37° C. for 16 hr, each 5 μl of the reaction mixture was digested with glycopeptidase F (GPF) according to manufacture's instruction. For detection of transferred GalNAc, horseradish peroxidase (HRP) conjugated lectin, Wisteria floribunda agglutinin (WFA) (EY Laboratories, San Mateo, Calif.), was used. A 1 μl of reaction mixtures subjected to 12.5% SDS-PAGE were transferred to nitrocellulose membrane (Schleicher & Schuell, Keene, N.H.) and stained with 0.1% HRP conjugated WFA lectin. The signals were detected using enhanced chemiluminescence (ECL) and Hyperfilm ECL (Amersham Biosciences).

B1: NGalNAc-T1: human enzyme (SEQ ID NO: 1) transferring N-acetylgalactosamine to N-acetylglucosamine via β1-4 linkage; tested as FLAG-tagged amino acids 62-1039 (protein, listed as Homo sapiens)
chain: RGVHAAPSTQRAEDSSESREEEQAPEGRDLDMLFPGGAGRLPLNFTHQTPPWREEYKGQVNLHVFEDWCGGAVGHLRRNLHFPLFPHTRTTVKKLAVSPKWKNYGLRIFGFIHPARDGDVQFSVASDDNSEFWLSLDESPAAAQLVAFVGKTGSEWTAPGEFTKFSSQVSKPRRLMASRRYYFELLHKQDDRGSDHVEVGWRAFLPGLKFEVISSAHISLYTDESALKMDHVAHVPQSPASHVGGRPPQEETSADMLRPDPRDTFFLTPRMESSSLENVLEPCAYAPTYVVKDFPIARYQGLQFVYLSFVYPNDYTRLTHMETDNKCFYRESPLYLERFGFYKYMKMDKEEGDEDEEDEVQRRAFLFLNPDDFLDDEDEGELLDSLEPTEAAPPRSGPQSPAPAAPAQPGATLAPPTPPRPRDGGTPRHSRALSWAARAARPLPLFLGRAPPPRPAVEQPPPKVYVTRVRPGQRASPRAPAPRAPWPPFPGVFLHPRPLPRVQLRAPPRPPRPHGRRTGGPQATQPRPPARAQATQGGREGQARTLGPAAPTVDSNLSSEARPVTSFLSLSQVSGPQLPGEGEEEEEGEDDGAPGDEAASEDSEEAAGPALGRWREDAIDWQRTFSVGAVDFELLRSDWNDLRCNVSGNLQLPEAEAVDVTAQYMERLNARHGGRFALLRIVNVEKRRDSARGSRFLLELELQERGGGRLRLSEYVFLRLPGARVGDADGESPEPAPAASVRPDGRPELCRPLRLAWRQDVMVHFIVPVKNQARWVAQFLADMAALHARTGDSRFSVVLVDFESEDMDVERALRAARLPRYQYLRRTGNFERSAGLQAGVDAVEDASSIVFLCDLHIHFPPNILDGIRKHCVEGRLAFAPVVMRLSCGSSPRDPHGYWEVNGFGLFGIYKSDFDRVGGMNTEEFRDQWGGEDWELLDRVLQAGLEVERLRLRNFYHHYHSKRGMWSVRSRKGSRTGAS
modifications: FLAG tag
pH at which the highest value was shown (NGalNAc-T1; HEPES buffer): 7.4
Incorporation of radioactivity (A) (NGalNAc-T1; HEPES buffer (pH 6.75)): 1685.06 dpm
(A) − (B) (NGalNAc-T1; HEPES buffer (pH 6.75)): 1421.85 dpm
Incorporation of radioactivity (A) (NGalNAc-T1; HEPES buffer (pH 7.0)): 1138.38 dpm
(A) − (B) (NGalNAc-T1; HEPES buffer (pH 7.0)): 875.17 dpm
Incorporation of radioactivity (A) (NGalNAc-T1; HEPES buffer (pH 7.4)): 2587.48 dpm
(A) − (B) (NGalNAc-T1; HEPES buffer (pH 7.4)): 2324.27 dpm
pH at which the activity tends to be higher (NGalNAc-T1; MES buffer): 6.5
Incorporation of radioactivity (A) (NGalNAc-T1; MES buffer (pH 5.5)): 339.76 dpm
(A) − (B) (NGalNAc-T1; MES buffer (pH 5.5)): 76.55 dpm
Incorporation of radioactivity (A) (NGalNAc-T1; MES buffer (pH 6.0)): 321.04 dpm
(A) − (B) (NGalNAc-T1; MES buffer (pH 6.0)): 57.83 dpm
Incorporation of radioactivity (A) (NGalNAc-T1; MES buffer (pH 6.26)): 636.34 dpm
(A) − (B) (NGalNAc-T1; MES buffer (pH 6.26)): 373.13 dpm
Incorporation of radioactivity (A) (NGalNAc-T1; MES buffer (pH 6.5)): 1767.72 dpm
(A) − (B) (NGalNAc-T1; MES buffer (pH 6.5)): 1504.51 dpm
Incorporation of radioactivity (A) (NGalNAc-T1; MES buffer (pH 6.75)): 923.92 dpm
(A) − (B) (NGalNAc-T1; MES buffer (pH 6.75)): 660.71 dpm
non-reducing terminal GalNAc on glycodelin (glycodelin in CHO cells): non-reducing terminal GalNAc is detected
transfer of GalNAc to glycoprotein asialo/agalacto-FCF [1]: same as NGalNAc-T2
